Laboratory results published in patent US20150216795A1 (SANOFI, priority 2012, published 2015).

Columns and labels:
[1] = tested on: patients with metastatic colorectal cancer (MCRC)
Source text: Each randomized patient was to be treated until disease progression, death, or unacceptable toxicity.
Treatment arms were evenly balanced for demographics, disease characteristics and prior anti-cancer treatments, including prior exposition to bevacizumab.
Patients received a median of 9 cycles of ZALTRAP/FOLFIRI or 8 cycles of placebo/FOLFIRI.

[2] = tested on: patients with metastatic colorectal cancer (MCRC); experiment: EFC10262 (VELOUR) randomized double-blind phase 3 study: efficacy (OS, PFS, response rate);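 note: Placebo-controlled comparison, both arms on FOLFIRI every 2 weeks until progression or intolerable toxicity, in patients progressing on or within 6 months after oxaliplatin-based combination chemotherapy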
Source text: Each randomized patient was to be treated until disease progression, death, or unacceptable toxicity. […] The predefined statistical significance level for this final analysis was 0.0466 after adjusting the type I error spent for the two interim analyses using the O'Brien-Fleming spending function.
The study included one formal interim analysis, planned for the purpose of efficacy, when 561 death events (65% information time) had occurred. Upon request of the independent Data Monitoring Committee (DMC), an additional interim analysis of OS was performed to provide an early evaluation of the benefit-risk ratio, when 315 death events (36.5% information fraction) had occurred.
A total of approximately 863 deaths were required to detect 20% hazard rate reduction in OS with 90% power using the two-sided log rank test at an overall 0.0499 alpha level. The median survival times was expected to be 11 months for the control group. The overall alpha level was split between overall survival (0.0499) and progression-free survival as a secondary efficacy endpoint (0.0001).
Approximately 1200 patients (i.e. 600 patients per treatment group) were planned to be randomized. Treatment assignment was stratified according to prior therapy with bevacizumab (yes or no), and ECOG performance status (PS) (0 vs 1 vs 2).
The enrolment started in November 2007 and was completed in March 2010. A total of 1226 patients were randomized. […] Treatment arms were evenly balanced for demographics, disease characteristics and prior anti-cancer treatments, including prior exposition to bevacizumab.
Immediately after, patients received irinotecan, 5-FU and leucovorin (FOLFIRI regimen). This treatment was repeated every 2 weeks.
Study 1 was a randomized, double-blind, placebo-controlled study in patients with metastatic colorectal cancer (mCRC) who are resistant to or have progressed during or within 6 months of receiving oxaliplatin-based combination chemotherapy, with or without prior bevacizumab. A total of 1226 patients were randomized (1:1) to receive either ZALTRAP (N=612; 4 mg per kg as a 1 hour intravenous infusion on day 1) or placebo (N=614), in combination with 5-fluorouracil plus irinotecan [FOLFIRI: irinotecan 180 mg per m2 IV infusion over 90 minutes and leucovorin (dl racemic) 400 mg per m^2 intravenous infusion over 2 hours at the same time on day 1 using a Y-line, followed by 5-FU 400 mg per m^2 intravenous bolus, followed by 5-FU 2400 mg per m^2 continuous intravenous infusion over 46-hours]. The treatment cycles on both arms were repeated every 2 weeks. Patients were treated until disease progression or unacceptable toxicity. The primary efficacy endpoint was overall survival. Treatment assignment was stratified by the ECOG performance status (0 versus 1 versus 2) and according to prior therapy with bevacizumab (yes or no).

[3] = adverse reaction, N = 611, listed as ZALTRAP/FOLFIRI
[4] = compilation of clinical and laboratory data, N = 611, listed as ZALTRAP/FOLFIRI
[5] = Kaplan-Meier, IRC, ITT population
[6] = by IRC, evaluable patient population N = 531
[7] = overall survival, Kaplan-Meier, ITT population

Ziv-aflibercept/Folfiri: ziv-aflibercept 4 mg/kg in combination with FOLFIRI (folinic acid, 5-fluorouracil and irinotecan) given intravenously every 2 weeks
Grade 4 hypertension (hypertensive crisis) ([1]; 1 patient): 0.2% | Grade 3 compromised wound healing ([1]; 2 patients): 0.3% | Nephrotic syndrome ([1]; 2 patients): 0.5% | fistulas (anal, enterovesical, enterocutaneous, colovaginal, intestinal sites) ([1]; 9 of 611 patients with mCRC): 1.5% | Grade 3-4 ATE ([1]; 11 patients): 1.8% | Patients with any TEAE ([1]; Safety population N = 611): 606 (99.2%) number (%) of patients | Patients with any TEAE leading to death ([1]; Safety population N = 611): 37 (6.1%) number (%) of patients | Patients with any TEAE leading to permanent treatment discontinuation ([1]; Safety population N = 611): 164 (26.8%) number (%) of patients | Patients with any TEAE leading to premature treatment discontinuation ([1]; Safety population N = 611): 119 (19.5%) number (%) of patients | Patients with any grade 3-4 TEAE ([1]; Safety population N = 611): 510 (83.5%) number (%) of patients | Patients with any related TEAE leading to death ([1]; Safety population N = 611): 6 (1.0%) number (%) of patients | Patients with any serious TEAE ([1]; Safety population N = 611): 294 (48.1%) number (%) of patients | Cycle delays >7 days ([1]; Study 1): 60 % of patients | Infections, Grade 3-4 ([1]; Study 1): 12% | Infections, all grades ([1]; Study 1): 46% | Alopecia (PT), All Gr ([1]; TEAE, safety population): 26.8 % of patients | Asthenic condition (HLT), All Gr ([1]; TEAE, safety population): 60.4 % of patients | Asthenic condition (HLT), Gr 3/4 ([1]; TEAE, safety population): 16.9 % of patients | Constipation (PT), All Gr ([1]; TEAE, safety population): 22.4 % of patients | Constipation (PT), Gr 3/4 ([1]; TEAE, safety population): 0.8 % of patients | Decrease appetite (PT), All Gr ([1]; TEAE, safety population): 31.9 % of patients | Decrease appetite (PT), Gr 3/4 ([1]; TEAE, safety population): 3.4 % of patients | Dehydration (PT), All Gr ([1]; TEAE, safety population): 9.0 % of patients | Diarrhea (PT), All Gr ([1]; TEAE, safety population): 69.2 % of patients | Dysphonia (PT), All Gr ([1]; TEAE, safety population): 25.4 % of patients | Epistaxis (PT), All Gr ([1]; TEAE, safety population): 27.7 % of patients | GI and abdominal pains (HLT), All Gr ([1]; TEAE, safety population): 34.0 % of patients | GI and abdominal pains (HLT), Gr 3/4 ([1]; TEAE, safety population): 5.4 % of patients | Headache (PT), All Gr ([1]; TEAE, safety population): 22.3 % of patients | Hypertension (grouping), All Gr ([1]; TEAE, safety population): 41.4 % of patients | Hypertension (grouping), Gr 3/4 ([1]; TEAE, safety population): 19.3 % of patients | Infections (SOC), All Gr ([1]; TEAE, safety population): 46.2 % of patients | Musculoskeletal & connective pain & discomfort (HLT), All Gr ([1]; TEAE, safety population): 23.1 % of patients | Musculoskeletal & connective pain & discomfort (HLT), Gr 3/4 ([1]; TEAE, safety population): 1.3 % of patients | Nausea (PT), All Gr ([1]; TEAE, safety population): 53.4 % of patients | Palmar plantar erythrodysaesthesia (PT), All Gr ([1]; TEAE, safety population): 11.0 % of patients | Palmar plantar erythrodysaesthesia (PT), Gr 3/4 ([1]; TEAE, safety population): 2.8 % of patients | Skin hyperpigmentation (PT), All Gr ([1]; TEAE, safety population): 8.2 % of patients | Skin hyperpigmentation (PT), Gr 3/4 ([1]; TEAE, safety population): 0 % of patients | Stomatitis & ulceration (HLT), All Gr ([1]; TEAE, safety population): 54.8 % of patients | Stomatitis & ulceration (HLT), Gr 3/4 ([1]; TEAE, safety population): 13.7 % of patients | Vomiting (PT), All Gr ([1]; TEAE, safety population): 32.9 % of patients | Weight decrease (PT), All Gr ([1]; TEAE, safety population): 31.9 % of patients | Weight decrease (PT), Gr 3/4 ([1]; TEAE, safety population): 2.6 % of patients | Abdominal Pain Upper, All grades ([1]; adverse reaction, N = 611): 11% | Abdominal Pain Upper, Grades 3-4 ([1]; adverse reaction, N = 611): 1% | Abdominal Pain, All grades ([1]; adverse reaction, N = 611): 27% | Abdominal Pain, Grades 3-4 ([1]; adverse reaction, N = 611): 4% | Asthenia, All grades ([1]; adverse reaction, N = 611): 18% | Asthenia, Grades 3-4 ([1]; adverse reaction, N = 611): 5% | Decreased Appetite, All grades ([1]; adverse reaction, N = 611): 32% | Decreased Appetite, Grades 3-4 ([1]; adverse reaction, N = 611): 3% | Dehydration, All grades ([1]; adverse reaction, N = 611): 9% | Diarrhea, All grades ([1]; adverse reaction, N = 611): 69% | Dysphonia, All grades ([1]; adverse reaction, N = 611): 25% | Dyspnea, All grades ([1]; adverse reaction, N = 611): 12% | Epistaxis, All grades ([1]; adverse reaction, N = 611): 28% | Fatigue, All grades ([1]; adverse reaction, N = 611): 48% | Fatigue, Grades 3-4 ([1]; adverse reaction, N = 611): 13% | Headache, All grades ([1]; adverse reaction, N = 611): 22% | Headache, Grades 3-4 ([1]; adverse reaction, N = 611): 2% | Hemorrhoids, All grades ([1]; adverse reaction, N = 611): 6% | Hemorrhoids, Grades 3-4 ([1]; adverse reaction, N = 611): 0% | Hypertension, All grades ([1]; adverse reaction, N = 611): 41% | Hypertension, Grades 3-4 ([1]; adverse reaction, N = 611): 19% | Leukopenia, All grades ([1]; adverse reaction, N = 611): 78% | Leukopenia, Grades 3-4 ([1]; adverse reaction, N = 611): 16% | Neutropenia, All grades ([1]; adverse reaction, N = 611): 67% | Oropharyngeal Pain, All grades ([1]; adverse reaction, N = 611): 8% | Palmar-Plantar Erythrodysesthesia Syndrome, All grades ([1]; adverse reaction, N = 611): 11% | Palmar-Plantar Erythrodysesthesia Syndrome, Grades 3-4 ([1]; adverse reaction, N = 611): 3% | Proctalgia, All grades ([1]; adverse reaction, N = 611): 5% | Rectal Hemorrhage, All grades ([1]; adverse reaction, N = 611): 5% | Rhinorrhea, All grades ([1]; adverse reaction, N = 611): 6% | Rhinorrhea, Grades 3-4 ([1]; adverse reaction, N = 611): 0% | Skin Hyperpigmentation, All grades ([1]; adverse reaction, N = 611): 8% | Skin Hyperpigmentation, Grades 3-4 ([1]; adverse reaction, N = 611): 0% | Stomatitis, All grades ([1]; adverse reaction, N = 611): 50% | Stomatitis, Grades 3-4 ([1]; adverse reaction, N = 611): 13% | Thrombocytopenia, All grades ([1]; adverse reaction, N = 611): 48% | Thrombocytopenia, Grades 3-4 ([1]; adverse reaction, N = 611): 3% | Urinary Tract Infection, All grades ([1]; adverse reaction, N = 611): 9% | Weight decreased, All grades ([1]; adverse reaction, N = 611): 32% | Weight decreased, Grades 3-4 ([1]; adverse reaction, N = 611): 3% | Dehydration, Grades 3-4 [1, 3]: 4% | Diarrhea, Grades 3-4 [1, 3]: 19% | Neutropenia, Grades 3-4 [1, 3]: 37% | onset of Grade 3-4 hypertension during the first two cycles of treatment ([1]; among patients developing Grade 3-4 hypertension): 54% | Proteinuria, All grades [1, 4]: 62% | Proteinuria, Grades 3-4 [1, 4]: 8% | Grade 3-4 hemorrhagic events ([1]; including gastrointestinal hemorrhage, hematuria, post-procedural hemorrhage): 3% | ALT increased, All grades ([1]; laboratory finding, N = 611): 50% | ALT increased, Grades 3-4 ([1]; laboratory finding, N = 611): 3% | AST increased, All grades ([1]; laboratory finding, N = 611): 62% | AST increased, Grades 3-4 ([1]; laboratory finding, N = 611): 3% | Serum creatinine increased, All grades ([1]; laboratory finding, N = 611): 23% | Serum creatinine increased, Grades 3-4 ([1]; laboratory finding, N = 611): 0% | Arterial thromboembolic events (ATE) ([1]; patients with mCRC): 2.6% | Grade 3-4 VTE ([1]; patients with mCRC): 8% | Grade 3-4 febrile neutropenia ([1]; patients with mCRC): 4% | Grade 3-4 neutropenic infection/sepsis ([1]; patients with mCRC): 1.5% | Grade 3 hypertension ([1]; patients with mCRC): 19% | Pulmonary embolism ([1]; patients with mCRC): 5% | bleeding/hemorrhage (all grades) ([1]; patients with mCRC): 38% | severe hypersensitivity reactions ([1]; patients with mCRC): 0.3% | venous thromboembolic events (VTE) ([1]; patients with mCRC): 9% | PFS, Probability of surviving (99.99% CI), 3 months [2, 5]: 0.793 | PFS, Probability of surviving (99.99% CI), 6 months [2, 5]: 0.573 | PFS, Probability of surviving (99.99% CI), 9 months [2, 5]: 0.313 | PFS, Probability of surviving (99.99% CI), 12 months [2, 5]: 0.166 | PFS, Probability of surviving (99.99% CI), 18 months [2, 5]: 0.051 | Progression Free Survival: Number of events, n (%) ([2]; Study 1, IRC): 393 (64.2%) n (%) | Overall Survival: Number of deaths, n (%) ([2]; Study 1, N = 612): 403 (65.8%) n (%) | Best Overall Response: Not evaluable, % [2, 6]: (4.0%) | Best Overall Response: Partial response, % [2, 6]: (19.8%) | Best Overall Response: Progressive disease, % [2, 6]: (10.4%) | Best Overall Response: Stable disease, % [2, 6]: (65.9%) | Overall Response: Responders (Complete response or Partial response), % [2, 6]: (19.8%) | Survival probability (95.34% CI), 3 months [2, 7]: 0.931 | Survival probability (95.34% CI), 6 months [2, 7]: 0.819 | Survival probability (95.34% CI), 9 months [2, 7]: 0.687 | Survival probability (95.34% CI), 12 months [2, 7]: 0.561 | Survival probability (95.34% CI), 18 months [2, 7]: 0.385 | Survival probability (95.34% CI), 24 months [2, 7]: 0.280 | overall survival HR (95% CI) ([2]; patients who received prior bevacizumab): 0.86 | overall survival HR (95% CI) ([2]; patients without prior bevacizumab exposure): 0.79
